B1: Homeobox protein cut-like 1, residues 941 to 1008; numbered along this chain, P39880 (parent)
chain: QEVDTIELTRQVKEKLAKNGICQRIFGEKVLGLSQGSVSDMLSRPKPWSKLTQKGREPFIRMQLWLNG

Variants of: B1
Assay: abundance fitness (aPCA) (normalised: wild type 0, dead -1); higher = more abundant; growth selection in yeast, the domain comes from the species named
Conditions: Homo sapiens

Abundance fitness: each site, then its substitutions
K54: P -0.439, Q -0.107, R -0.074, T -0.101, V -0.346, W -0.327, Y -0.431
G55: A 0.016, C -0.17, D 0.084, E 0.17, F 0.042, H -0.132, I 0.093, K -0.163, L -0.045, M -0.018, N -0.792, P -0.517, Q 0.033, R -0.38, T -0.162, V -0.01, W -0.189, Y -0.104
R56: A -0.479, C -0.525, D -1.13, E -1.2, F -0.659, H -0.676, I -0.6, K -0.045, L -0.418, M -0.238, N -1.16, P -1.06, Q -0.287, S -0.598, T -0.373, V -0.39, W -0.456, Y -0.444
E57: A -0.046, D -0.162, F -0.294, G -0.126, H -0.213, I -0.097, K -0.091, L -0.194, M -0.203, N -0.055, P -0.744, Q -0.147, R -0.223, S -0.192, T -0.15, V -0.192, W -0.148, Y -0.453
P58: A -0.102, C 0.099, D -0.13, F 0.006, G -0.201, H -0.135, I 0.117, K -0.04, L 0.109, N 0.025, Q -0.036, R -0.049, S -0.093, T 0.052, V -0.014, W -0.007, Y -0.1
F59: A -0.813, C -0.817, E -0.431, G -1.17, H -1.18, I -0.525, K -0.954, M -0.568, N -1.2, P -0.833, Q -1.13, R -0.7, S -0.995, T -0.686, V -0.761, W -0.128, Y -0.006
I60: A -0.073, C -0.139, D -0.29, E -0.152, F -0.205, G -0.383, K 0.013, L -0.015, M -0.054, N -0.051, P -0.911, Q -0.142, R 0.071, S -0.141, T -0.008, V 0.025, W -0.334, Y 0.004
R61: A -0.183, C -0.277, E -0.479, F -0.991, G -0.582, H -0.393, I -0.706, L -0.174, M -0.308, N -0.041, P -0.788, Q -0.131, S -0.386, T -0.131, V -0.487, W -0.619, Y -0.365
M62: A -0.141, C -0.226, D -0.86, F 0, G -0.591, H -1.33, I -0.346, K -0.793, L -0.227, N -1.08, P -0.93, R -0.855, S -0.619, T -0.274, V -0.388, W -0.335, Y -0.959
Q63: A -0.268, C -0.441, D -0.389, E -0.272, F -0.258, G -0.098, H 0.041, I -0.2, K 0.017, L -0.424, M -0.124, N -0.317, P -0.724, R 0.012, S -0.219, T -0.184, V -0.262, W -0.032, Y -0.069
L64: A 0.087
